We go through one molecule from publication PMC10724965, “FRIZZLE PANICLE (FZP) regulates rice spikelets development through modulating cytokinin metabolism”.

In the data set the target is MBP-FZP (Oryza sativa, UniProt Q8H3Q1 1-318). In words: EMSA; 5 nmol protein, 2 nmol probe (so in the source); shift substantially weakened by excess unlabeled probe; EMSA: 10 uL, 2 uL 5x EMSA/Gel-shift binding buffer (Beyotime?), 5 nmol protein, 2 nmol biotin-labeled probe; salt, pH and temperature not given. The conditions noted are these: protein: recombinant; tags: MBP (pMAL-c2x); label: biotin; blunt.
Chain of MBP-FZP (Q8H3Q1 whole entry): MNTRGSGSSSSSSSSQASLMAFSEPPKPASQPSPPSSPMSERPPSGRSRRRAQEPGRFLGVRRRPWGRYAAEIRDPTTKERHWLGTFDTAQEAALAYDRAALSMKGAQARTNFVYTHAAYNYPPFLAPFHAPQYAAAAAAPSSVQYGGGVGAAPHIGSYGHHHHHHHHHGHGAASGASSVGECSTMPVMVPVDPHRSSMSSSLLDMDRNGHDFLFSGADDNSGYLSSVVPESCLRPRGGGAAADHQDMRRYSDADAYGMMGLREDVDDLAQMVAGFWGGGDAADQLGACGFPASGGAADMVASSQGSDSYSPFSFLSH

B1: EMSA-DST-probe (GCC-box, DST promoter) (dsDNA)
DNA 1: GCACAAGACCCGCAGGCCCAATGGCGAGCCGCCACGTGTACCCGCGCCTCCCCTCCCCGGCC
DNA 2: GGCCGGGGAGGGGAGGCGCGGGTACACGTGGCGGCTCGCCATTGGGCCTGCGGGTCTTGTGC
On to B1, for which the binding result is “binds”.
